Assays:
C2, P06681 = target: T1, C2, P06681
T1 chain: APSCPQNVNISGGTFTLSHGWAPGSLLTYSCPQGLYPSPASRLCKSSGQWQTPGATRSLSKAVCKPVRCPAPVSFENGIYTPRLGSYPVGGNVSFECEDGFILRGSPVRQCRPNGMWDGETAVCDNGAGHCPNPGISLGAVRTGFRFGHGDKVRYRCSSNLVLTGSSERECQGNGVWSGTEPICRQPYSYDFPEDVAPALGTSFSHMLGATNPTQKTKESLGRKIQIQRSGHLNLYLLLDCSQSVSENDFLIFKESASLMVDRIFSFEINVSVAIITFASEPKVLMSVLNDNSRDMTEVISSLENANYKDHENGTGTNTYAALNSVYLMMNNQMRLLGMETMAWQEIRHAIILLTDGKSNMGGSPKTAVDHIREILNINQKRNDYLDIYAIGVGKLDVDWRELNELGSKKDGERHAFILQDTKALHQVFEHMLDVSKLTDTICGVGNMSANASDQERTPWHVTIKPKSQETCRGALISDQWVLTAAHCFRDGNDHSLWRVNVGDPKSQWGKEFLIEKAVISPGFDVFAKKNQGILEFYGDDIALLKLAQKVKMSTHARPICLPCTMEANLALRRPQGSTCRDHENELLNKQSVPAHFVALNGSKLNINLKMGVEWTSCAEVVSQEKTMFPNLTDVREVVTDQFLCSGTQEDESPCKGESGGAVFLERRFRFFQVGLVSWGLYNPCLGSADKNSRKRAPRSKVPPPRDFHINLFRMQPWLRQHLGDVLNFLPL

Factor H, P08603 = target: T2, Factor H, P08603
T2 chain: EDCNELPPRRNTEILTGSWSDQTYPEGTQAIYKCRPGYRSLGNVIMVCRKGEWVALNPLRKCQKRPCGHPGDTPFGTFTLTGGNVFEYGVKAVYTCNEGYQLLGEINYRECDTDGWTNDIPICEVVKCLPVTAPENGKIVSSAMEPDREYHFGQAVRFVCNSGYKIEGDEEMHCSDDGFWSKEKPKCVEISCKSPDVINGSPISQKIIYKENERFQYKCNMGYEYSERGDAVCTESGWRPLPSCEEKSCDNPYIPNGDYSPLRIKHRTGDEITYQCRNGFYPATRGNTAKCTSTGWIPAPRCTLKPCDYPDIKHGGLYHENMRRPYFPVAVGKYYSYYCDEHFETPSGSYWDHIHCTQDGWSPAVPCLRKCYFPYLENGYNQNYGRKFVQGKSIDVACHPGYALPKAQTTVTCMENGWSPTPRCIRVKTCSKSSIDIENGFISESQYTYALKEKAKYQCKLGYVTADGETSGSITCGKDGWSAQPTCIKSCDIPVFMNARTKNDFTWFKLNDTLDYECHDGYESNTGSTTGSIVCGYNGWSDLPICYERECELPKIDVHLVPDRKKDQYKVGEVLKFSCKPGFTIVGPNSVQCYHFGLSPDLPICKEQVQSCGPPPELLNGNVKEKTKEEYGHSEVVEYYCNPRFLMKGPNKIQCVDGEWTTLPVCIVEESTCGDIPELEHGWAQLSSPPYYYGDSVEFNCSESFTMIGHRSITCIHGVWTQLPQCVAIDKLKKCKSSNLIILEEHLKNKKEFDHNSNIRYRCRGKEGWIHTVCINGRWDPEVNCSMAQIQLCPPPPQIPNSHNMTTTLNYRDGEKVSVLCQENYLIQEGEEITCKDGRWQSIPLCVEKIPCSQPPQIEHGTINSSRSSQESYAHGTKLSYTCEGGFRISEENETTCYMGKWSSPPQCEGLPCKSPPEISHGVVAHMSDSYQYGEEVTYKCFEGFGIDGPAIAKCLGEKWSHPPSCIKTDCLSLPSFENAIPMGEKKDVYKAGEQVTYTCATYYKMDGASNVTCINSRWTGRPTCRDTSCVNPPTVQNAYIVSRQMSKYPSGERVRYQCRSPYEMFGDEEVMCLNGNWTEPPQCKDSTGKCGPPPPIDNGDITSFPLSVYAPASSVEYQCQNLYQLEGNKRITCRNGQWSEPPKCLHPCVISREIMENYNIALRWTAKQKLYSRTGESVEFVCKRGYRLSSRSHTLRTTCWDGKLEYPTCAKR

human C5a, P01031 = target: T3, human C5a, P01031
T3 chain: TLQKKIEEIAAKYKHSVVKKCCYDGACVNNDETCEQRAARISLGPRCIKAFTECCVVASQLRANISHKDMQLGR

β-casein = target: T4, β-casein
T4 sequence (P02666 16-224, species assumed, looked up): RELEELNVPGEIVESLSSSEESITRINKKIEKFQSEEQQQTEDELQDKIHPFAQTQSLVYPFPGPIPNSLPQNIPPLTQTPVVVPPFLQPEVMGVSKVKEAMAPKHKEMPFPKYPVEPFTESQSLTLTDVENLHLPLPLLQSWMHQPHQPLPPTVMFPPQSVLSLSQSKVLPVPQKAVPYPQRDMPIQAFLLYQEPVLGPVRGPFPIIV

Chain of Factor B, P00751 (P00751 26-764): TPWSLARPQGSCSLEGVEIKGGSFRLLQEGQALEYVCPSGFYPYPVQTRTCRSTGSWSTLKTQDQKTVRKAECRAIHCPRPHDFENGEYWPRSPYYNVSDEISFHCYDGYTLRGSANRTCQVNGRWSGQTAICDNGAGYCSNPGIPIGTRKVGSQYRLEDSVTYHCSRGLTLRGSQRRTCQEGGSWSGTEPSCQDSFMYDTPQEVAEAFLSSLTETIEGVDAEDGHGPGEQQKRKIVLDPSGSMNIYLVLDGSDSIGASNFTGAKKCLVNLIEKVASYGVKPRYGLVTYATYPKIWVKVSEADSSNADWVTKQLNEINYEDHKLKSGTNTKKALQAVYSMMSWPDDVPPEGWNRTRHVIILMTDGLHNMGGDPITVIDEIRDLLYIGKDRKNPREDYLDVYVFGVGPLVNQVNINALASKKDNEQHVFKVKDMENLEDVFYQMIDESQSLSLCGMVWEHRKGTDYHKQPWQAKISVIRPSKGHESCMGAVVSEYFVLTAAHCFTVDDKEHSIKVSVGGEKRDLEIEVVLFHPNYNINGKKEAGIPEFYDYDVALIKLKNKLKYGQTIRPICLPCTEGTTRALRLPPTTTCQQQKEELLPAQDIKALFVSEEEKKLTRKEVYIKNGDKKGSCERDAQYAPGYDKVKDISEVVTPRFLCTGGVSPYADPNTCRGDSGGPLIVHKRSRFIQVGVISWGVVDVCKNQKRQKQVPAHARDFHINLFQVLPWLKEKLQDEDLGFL
Chain of Properidin, P27918 (P27918 28-469): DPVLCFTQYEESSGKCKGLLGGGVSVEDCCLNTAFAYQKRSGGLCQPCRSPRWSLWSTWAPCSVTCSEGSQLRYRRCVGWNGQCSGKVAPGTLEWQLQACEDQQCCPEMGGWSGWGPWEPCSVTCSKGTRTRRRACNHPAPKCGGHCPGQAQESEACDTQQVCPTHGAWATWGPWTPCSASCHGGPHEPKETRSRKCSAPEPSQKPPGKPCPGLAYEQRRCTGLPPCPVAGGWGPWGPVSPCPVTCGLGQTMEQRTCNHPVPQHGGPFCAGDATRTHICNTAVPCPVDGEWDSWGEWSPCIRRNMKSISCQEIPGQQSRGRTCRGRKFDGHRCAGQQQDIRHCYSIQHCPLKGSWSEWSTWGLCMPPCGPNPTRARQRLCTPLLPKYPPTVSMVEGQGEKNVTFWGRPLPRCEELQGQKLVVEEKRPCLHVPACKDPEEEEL

B1: PrtV(Pro-B) (protein)
chain: DTVNGSESVKTEATQASGSSVQDNATAKTTVTTNSNSSNNVSNVQTDTVKEAATSNVDSVASQNQATTAQQAKTTADTADQTVPPTTYKDHVKGNVQTAWDNGYKGQGMVVAVIDSGADTNHKDFSKAPESPAISKEDADKKISELGYGKYASEKFPFVYNYASRDNNWVKDDGPDASEHGQHVAGIIGADGQPNGNERYAVGVAPETQLMMMRVFNDQFADENTDDIAQAIYDAVKLGANVIQMSLGQGVAAANLNDVEQKAVEYATQHGVFVSISASNNGNSASVTGEEVPYKPGGADGNFEPFSSSTVANPGASRNAMTVAAENSVVGAGDDMADFSSWGPLQDFTLKPDVSAPGVSVTSTGNDNRYNTMSGTSMAGPFNAGVAALVMQRLKATTNLNGADLVQATKALIMNTAKPMTQQGYDTPVSPRRQGAGEIDAGAATESPVYVVAADGTSSVSLRKVGDSTQFALTFKNLSDKDQTYTFDDFGGGLTEVRDADTGTFHDVYLAGAHVYGNKTVTVKAGQSATYNFTLSLTGLKENQLVEGWLRFVGNDGQNQLVVPYLAYYGDMTSEDVFDKAANQEGTVYGGNYFVNEDNYPRGVADEDSLKALVNLEGNYNWQQVAKLYQDGKVAFSPNADGKSDLLKPYAFVKQNLKDLKVEVLDKSGKVVRVVADEQGLDKSYYESGVNKDVTLSVSMRNNPNTLAWDGKVYDDKAGEMVNAADGEYTYRYVATLYNDGVNKVQTADYPVVIDTTAPVLSNVKYDAATHTLSFDYKDTGSGFTDYSYAVVKVNDKTFGYKLNDGKNSKFLDAAKTSGTFKAVLGSDTLAALTAAKNALSVAVSDVADNTSTVTLLVNGNNDATTKVSVWNATNGLELDQSSPDYQAATSTYNLRGNATSDFYYNGALVQVDNSGNFVVPVSTSDTAVVFTSDAAGKNVVYKLNTATPKAVFAWQVNNTVKENFGIVLDTVVSNNKDDVVVQAAVTKGDNVEAYARDYFTGAVYKADVKDGLATFHVKVTNNSGRTVLLGWTEVVGPTFNDVQRTSANGVYLGVDTDTENPTPAPAFTSADQLGTNVVQEKADSATIGNPGDLPGHSLKDLTTRADANPDIHFDYLKDNDYNWVGAQAVKDGVYNPSTQVFTLTGKVDPNVKSLVVLGDSYNEDDPVNKVNLNSDGTFSFQFHTAPTSQRPVAYIYTKDDGSTTRGTMELILDTVLPTLSLNNVANLQLDSNGDYQVYTNNKDFSVSGEATDNLDGYRFFFNGDNDYREFHNSGVNFVAEAHQDGSTVTNPYPAYKFSKTFNLADATGETTHVYTLSVVDLTGNTVTRKFYVHY
- proteolytic activity (SDS-PAGE) (C2, P06681): None of the complement proteins tested show evidence of breakdown
- proteolytic activity (SDS-PAGE) (C3, P01024): None of the complement proteins tested show evidence of breakdown
- protein cleavage assay (SDS-PAGE) (C3a, P01024): has activities against
- proteolytic activity (control of enzyme stock) (C3a, P01024): shown to be active against C3a
- proteolytic activity (SDS-PAGE) (C4): None of the complement proteins tested show evidence of breakdown
- proteolytic activity (SDS-PAGE) (Factor B, P00751): None of the complement proteins tested show evidence of breakdown
- proteolytic activity (SDS-PAGE) (Factor H, P08603): None of the complement proteins tested show evidence of breakdown
- protein cleavage assay (SDS-PAGE) (IL-17): has activities against
- protein cleavage assay (SDS-PAGE) (IL-1β): has activities against
- protein cleavage assay (SDS-PAGE) (IL-3): has activities against
- protein cleavage assay (SDS-PAGE) (IL-8): has activities against
- protein cleavage assay (SDS-PAGE) (IP-10): has activities against
- proteolytic activity (SDS-PAGE) (Properidin, P27918): None of the complement proteins tested show evidence of breakdown
- protein cleavage assay (SDS-PAGE) (TNF-α): has activities against
- digestion (SDS-PAGE) (cytochrome C): did not digest
- digestion (SDS-PAGE) (fibrinogen): did not digest
- digestion (SDS-PAGE) (haemoglobin): did not digest
- protein cleavage assay (SDS-PAGE) (human C5a, P01031): has activities against
- digestion (SDS-PAGE) (lysozyme): did not digest
- casein activity assay (SDS-PAGE) (α-casein): cleaving only α-casein in a limited manner
- casein activity assay (SDS-PAGE) (β-casein): cleaving only α-casein in a limited manner
- casein activity assay (SDS-PAGE) (κ-casein): cleaving only α-casein in a limited manner

From patent US20210386836
